The values below are quoted from earlier work in PMC6263114.

This data set concerns the target transferrin receptor (TfR) (Homo sapiens) (UniProt P02786).

Chain of transferrin receptor (TfR) (Homo sapiens) (P02786 89-760): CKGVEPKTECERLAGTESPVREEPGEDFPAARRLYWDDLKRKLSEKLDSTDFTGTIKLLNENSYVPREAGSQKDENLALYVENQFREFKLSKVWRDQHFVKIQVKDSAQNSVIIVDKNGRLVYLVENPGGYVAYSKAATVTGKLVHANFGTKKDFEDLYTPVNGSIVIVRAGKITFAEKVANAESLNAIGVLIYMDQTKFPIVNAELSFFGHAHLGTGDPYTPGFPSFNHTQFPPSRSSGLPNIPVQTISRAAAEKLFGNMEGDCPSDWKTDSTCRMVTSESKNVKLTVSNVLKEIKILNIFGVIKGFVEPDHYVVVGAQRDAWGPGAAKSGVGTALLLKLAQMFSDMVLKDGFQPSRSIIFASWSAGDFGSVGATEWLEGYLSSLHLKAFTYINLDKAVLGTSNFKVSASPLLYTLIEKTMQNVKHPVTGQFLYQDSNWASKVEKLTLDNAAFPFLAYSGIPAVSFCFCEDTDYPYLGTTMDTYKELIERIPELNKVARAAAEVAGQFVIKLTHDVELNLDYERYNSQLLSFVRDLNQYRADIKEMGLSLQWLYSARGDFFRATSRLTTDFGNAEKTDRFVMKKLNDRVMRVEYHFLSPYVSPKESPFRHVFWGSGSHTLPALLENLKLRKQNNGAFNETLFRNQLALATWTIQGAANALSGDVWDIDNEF

Broadly, the Kd is the free concentration of one partner at which half of the binding sites on the other are occupied at equilibrium, for simple one-to-one binding. Consider T7 peptide, for which the dissociation constant (Kd) is 10 nM.
